In US20140274782A1, “AFFINITY REAGENTS AND METHODS FOR DETECTION, PURIFICATION, AND PROTEOMIC ANALYSIS OF METHYLATED PROTEINS” (The Board of Trustees of the Leland Stanford Junior …, priority 2013, published 2014):

Assays:
G9a and GLP = biological target: T1, G9a and GLP (Homo sapiens, UniProt Q96KQ7+Q9H9B1); test: Triple SILAC pull-down after UNC0638 treatment of 293T cells, DMSO/UNC0638 ratio of protein captured by 3×MBT; type: cell-based; parameters: cells were treated for 24 hours with UNC0638 at 2.5 μM or DMSO vehicle control; endogenous in cells; host or cells: HEK 293T; details: for Relative to UNC0638 UNC Heavy / Relative to UNC0638 UNC Light: SILAC ratio DMSO/UNC0638 of protein pulled down with 3xMBT; for Relative to UNC0638 UNC Heavy: UNC0638 in heavy SILAC media; for Relative to UNC0638 UNC Light: UNC0638 in light SILAC media; for Relative to UNC0638 Average: average of UNC Light and UNC Heavy experiments;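 as to all read-outs here: mass spectrometry (Q-Exactive) SILAC quantitation, DMSO/UNC0638 ratio computed after subtracting 3×MBTD355N mutant pull-down background, only proteins with at least twofold 3×MBT over mutant signal considered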
T1 sequence (Q96KQ7 2-1210 limits assumed): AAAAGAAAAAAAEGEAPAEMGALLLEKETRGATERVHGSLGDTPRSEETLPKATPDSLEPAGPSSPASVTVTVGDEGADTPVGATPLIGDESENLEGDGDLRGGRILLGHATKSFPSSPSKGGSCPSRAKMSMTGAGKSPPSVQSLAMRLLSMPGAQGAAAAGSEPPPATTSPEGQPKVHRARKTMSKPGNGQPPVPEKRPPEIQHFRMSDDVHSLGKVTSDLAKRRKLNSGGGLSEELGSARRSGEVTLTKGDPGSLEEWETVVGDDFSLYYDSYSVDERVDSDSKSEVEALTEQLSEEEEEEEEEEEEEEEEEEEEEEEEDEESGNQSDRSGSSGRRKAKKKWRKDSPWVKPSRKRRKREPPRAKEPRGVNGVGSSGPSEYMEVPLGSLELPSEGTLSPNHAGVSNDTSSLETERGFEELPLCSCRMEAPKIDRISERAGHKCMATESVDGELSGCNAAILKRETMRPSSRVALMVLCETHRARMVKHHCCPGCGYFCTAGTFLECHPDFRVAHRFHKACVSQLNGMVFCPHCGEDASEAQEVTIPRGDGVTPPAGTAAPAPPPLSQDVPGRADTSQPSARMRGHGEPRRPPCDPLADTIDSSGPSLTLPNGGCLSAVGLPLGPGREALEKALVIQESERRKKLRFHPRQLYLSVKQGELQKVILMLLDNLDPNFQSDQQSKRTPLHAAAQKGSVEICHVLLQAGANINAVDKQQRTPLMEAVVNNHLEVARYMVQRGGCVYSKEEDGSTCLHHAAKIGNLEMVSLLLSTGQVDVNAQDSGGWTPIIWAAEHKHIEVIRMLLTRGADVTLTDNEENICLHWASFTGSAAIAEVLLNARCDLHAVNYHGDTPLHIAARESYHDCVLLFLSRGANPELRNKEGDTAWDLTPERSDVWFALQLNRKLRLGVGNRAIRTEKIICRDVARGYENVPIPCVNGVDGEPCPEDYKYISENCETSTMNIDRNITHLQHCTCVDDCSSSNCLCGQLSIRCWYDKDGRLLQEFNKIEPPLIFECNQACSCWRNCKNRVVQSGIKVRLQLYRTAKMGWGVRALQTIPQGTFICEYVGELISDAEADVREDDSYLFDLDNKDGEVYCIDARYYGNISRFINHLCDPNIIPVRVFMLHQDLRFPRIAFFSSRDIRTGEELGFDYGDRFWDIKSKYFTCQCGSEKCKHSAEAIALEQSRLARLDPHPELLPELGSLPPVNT
T1 sequence (Q9H9B1 2-1298 limits assumed): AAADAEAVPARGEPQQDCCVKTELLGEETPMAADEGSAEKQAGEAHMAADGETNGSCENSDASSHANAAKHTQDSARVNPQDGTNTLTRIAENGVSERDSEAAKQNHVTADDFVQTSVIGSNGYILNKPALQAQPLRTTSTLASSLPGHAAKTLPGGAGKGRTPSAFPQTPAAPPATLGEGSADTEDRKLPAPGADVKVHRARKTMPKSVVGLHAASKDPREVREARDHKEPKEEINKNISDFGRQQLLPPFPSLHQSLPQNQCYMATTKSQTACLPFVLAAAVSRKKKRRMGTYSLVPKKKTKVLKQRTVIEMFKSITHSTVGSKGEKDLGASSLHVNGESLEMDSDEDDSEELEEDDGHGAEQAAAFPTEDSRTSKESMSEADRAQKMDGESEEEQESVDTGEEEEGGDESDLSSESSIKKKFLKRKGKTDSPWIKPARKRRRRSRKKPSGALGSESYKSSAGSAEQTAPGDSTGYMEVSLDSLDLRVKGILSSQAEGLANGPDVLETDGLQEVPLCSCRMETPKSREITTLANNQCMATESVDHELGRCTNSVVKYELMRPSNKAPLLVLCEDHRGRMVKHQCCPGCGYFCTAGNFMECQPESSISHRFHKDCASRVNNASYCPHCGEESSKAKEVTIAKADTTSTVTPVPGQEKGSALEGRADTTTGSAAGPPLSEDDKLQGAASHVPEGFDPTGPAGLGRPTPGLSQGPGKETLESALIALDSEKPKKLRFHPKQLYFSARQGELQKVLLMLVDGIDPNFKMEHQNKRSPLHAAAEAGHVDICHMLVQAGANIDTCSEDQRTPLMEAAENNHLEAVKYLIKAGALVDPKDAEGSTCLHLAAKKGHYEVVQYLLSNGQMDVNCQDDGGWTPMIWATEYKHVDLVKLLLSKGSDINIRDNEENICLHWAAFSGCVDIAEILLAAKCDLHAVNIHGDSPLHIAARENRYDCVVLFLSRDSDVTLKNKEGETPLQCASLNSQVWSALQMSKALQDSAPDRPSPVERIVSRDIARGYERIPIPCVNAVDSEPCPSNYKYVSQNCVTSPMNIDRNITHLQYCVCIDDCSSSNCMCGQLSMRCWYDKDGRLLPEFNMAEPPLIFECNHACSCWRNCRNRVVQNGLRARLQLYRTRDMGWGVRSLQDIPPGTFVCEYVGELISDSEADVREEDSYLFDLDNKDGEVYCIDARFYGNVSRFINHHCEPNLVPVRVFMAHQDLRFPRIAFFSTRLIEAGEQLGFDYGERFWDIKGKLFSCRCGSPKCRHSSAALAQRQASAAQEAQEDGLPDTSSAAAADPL

3×MBT domain of L3MBTL1 = test: Triple SILAC pull-down, 3xMBT/3xMBTD355N ratio (cytoplasmic, nuclear and chromatin fractions of 293T cells); type: binding, human; details: SILAC ratio, pull-down 3xMBT vs 3xMBTD355N; for 3xMBT/D355N UNC Heavy: experiment with UNC0638 in heavy SILAC media; for 3xMBT/D355N UNC Light: experiment with UNC0638 in light SILAC media;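 as to all read-outs here: proteins quantified with MaxQuant, requiring at least two unique peptides and quantification in both label directions, normalized to the mean of proteins from a digested loading control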

B1: PDCD2L (protein, UniProt Q9BRP1 2-358, looked up)
Programmed cell death protein …: AAVLKPVLLGLRDAPVHGSPTGPGAWTASKLGGIPDALPTVAAPRPVCQRCGQPLALVVQVYCPLEGSPFHRLLHVFACACPGCSTGGARSWKVFRSQCLQVPEREAQDAQKQGNSLAAEDWCEGADDWGSDTEEGPSPQFTLDFGNDASSAKDVDWTARLQDLRLQDAVLGAAHPVPPGLPLFLPYYICVADEDDYRDFVNLDHAHSLLRDYQQREGIAMDQLLSQSLPNDGDEKYEKTIIKSGDQTFYKFMKRIAACQEQILRYSWSGEPLFLTCPTSEVTELPACSQCGGQRIFEFQLMPALVSMLKSANLGLSVEFGTILVYTCEKSCWPPNHQTPMEEFCIIQEDPDELLFK
B1 was tested. Which “Relative to UNC0638 UNC Heavy” value (G9a and GLP) did it give?
The value was 0.22 log base 2.

What about the “Relative to UNC0638 UNC Light” value (G9a and GLP) of the same molecule?
The value was 0.28 log base 2.

And the “Relative to UNC0638 Average” value (G9a and GLP)?
The value was 0.25 log base 2.

What about the “3xMBT/D355N UNC Heavy” value (3×MBT domain of L3MBTL1) of the same molecule?
The value was 2.68 log base 2.

What about the “3xMBT/D355N UNC Light” value (3×MBT domain of L3MBTL1) of the same molecule?
The value was 3.19 log base 2.

B2: HNRNPH2 (protein, UniProt P55795 1-449, looked up)
Heterogeneous nuclear …: MMLSTEGREGFVVKVRGLPWSCSADEVMRFFSDCKIQNGTSGIRFIYTREGRPSGEAFVELESEEEVKLALKKDRETMGHRYVEVFKSNSVEMDWVLKHTGPNSPDTANDGFVRLRGLPFGCSKEEIVQFFSGLEIVPNGMTLPVDFQGRSTGEAFVQFASQEIAEKALKKHKERIGHRYIEIFKSSRAEVRTHYDPPRKLMAMQRPGPYDRPGAGRGYNSIGRGAGFERMRRGAYGGGYGGYDDYGGYNDGYGFGSDRFGRDLNYCFSGMSDHRYGDGGSSFQSTTGHCVHMRGLPYRATENDIYNFFSPLNPMRVHIEIGPDGRVTGEADVEFATHEDAVAAMAKDKANMQHRYVELFLNSTAGTSGGAYDHSYVELFLNSTAGASGGAYGSQMMGGMGLSNQSSYGGPASQQLSGGYGGGYGGQSSMSGYDQVLQENSSDYQSNLA
With B2 as the molecule, how does the “Relative to UNC0638 UNC Heavy” value (G9a and GLP) read?
The value was 0.18 log base 2.

What about the “Relative to UNC0638 UNC Light” value (G9a and GLP) of the same molecule?
The value was 0.32 log base 2.

What about the “Relative to UNC0638 Average” value (G9a and GLP) of the same molecule?
The value was 0.25 log base 2.

And the “3xMBT/D355N UNC Heavy” value (3×MBT domain of L3MBTL1)?
The value was 1.02 log base 2.

And the “3xMBT/D355N UNC Light” value (3×MBT domain of L3MBTL1)?
The value was 2.68 log base 2.

B3: ZC3HAV1 (protein, UniProt Q7Z2W4 2-902, looked up)
Zinc finger CCCH-type …: ADPEVCCFITKILCAHGGRMALDALLQEIALSEPQLCEVLQVAGPDRFVVLETGGEAGITRSVVATTRARVCRRKYCQRPCDNLHLCKLNLLGRCNYSQSERNLCKYSHEVLSEENFKVLKNHELSGLNKEELAVLLLQSDPFFMPEICKSYKGEGRQQICNQQPPCSRLHICDHFTRGNCRFPNCLRSHNLMDRKVLAIMREHGLNPDVVQNIQDICNSKHMQKNPPGPRAPSSHRRNMAYRARSKSRDRFFQGSQEFLASASASAERSCTPSPDQISHRASLEDAPVDDLTRKFTYLGSQDRARPPSGSSKATDLGGTSQAGTSQRFLENGSQEDLLHGNPGSTYLASNSTSAPNWKSLTSWTNDQGARRKTVFSPTLPAARSSLGSLQTPEAVTTRKGTGLLSSDYRIINGKSGTQDIQPGPLFNNNADGVATDITSTRSLNYKSTSSGHREISSPRIQDAGPASRDVQATGRIADDADPRVALVNDSLSDVTSTTSSRVDDHDSEEICLDHLCKGCPLNGSCSKVHFHLPYRWQMLIGKTWTDFEHMETIEKGYCNPGIHLCSVGSYTINFRVMSCDSFPIRRLSTPSSVTKPANSVFTTKWIWYWKNESGTWIQYGEEKDKRKNSNVDSSYLESLYQSCPRGVVPFQAGSRNYELSFQGMIQTNIASKTQKDVIRRPTFVPQWYVQQMKRGPDHQPAKTSSVSLTATFRPQEDFCFLSSKKYKLSEIHHLHPEYVRVSEHFKASMKNFKIEKIKKIENSELLDKFTWKKSQMKEEGKLLFYATSRAYVESICSNNFDSFLHETHENKYGKGIYFAKDAIYSHKNCPYDAKNVVMFVAQVLVGKFTEGNITYTSPPPQFDSCVDTRSNPSVFVIFQKDQVYPQYVIEYTEDKACVIS
How did the “Relative to UNC0638 UNC Heavy” value (G9a and GLP) turn out when B3 was run?
Its value is −0.16 log base 2.

What about the “Relative to UNC0638 UNC Light” value (G9a and GLP) of the same molecule?
The value was 0.65 log base 2.

What about the “Relative to UNC0638 Average” value (G9a and GLP) of the same molecule?
Its value is 0.25 log base 2.

And the “3xMBT/D355N UNC Heavy” value (3×MBT domain of L3MBTL1)?
The value was 2.03 log base 2.

And the “3xMBT/D355N UNC Light” value (3×MBT domain of L3MBTL1)?
Its value is 1.92 log base 2.

B4: SF3B2 (protein, UniProt Q13435 1-895, looked up)
Splicing factor 3B subunit 2: MATEHPEPPKAELQLPPPPPPGHYGAWAAQELQAKLAEIGAPIQGNREELVERLQSYTRQTGIVLNRPVLRGEDGDKAAPPPMSAQLPGIPMPPPPLGLPPLQPPPPPPPPPPGLGLGFPMAHPPNLGPPPPLRVGEPVALSEEERLKLAQQQAALLMQQEERAKQQGDHSLKEHELLEQQKRAAVLLEQERQQEIAKMGTPVPRPPQDMGQIGVRTPLGPRVAAPVGPVGPTPTVLPMGAPVPRPRGPPPPPGDENREMDDPSVGPKIPQALEKILQLKESRQEEMNSQQEEEEMETDARSSLGQSASETEEDTVSVSKKEKNRKRRNRKKKKKPQRVRGVSSESSGDREKDSTRSRGSDSPAADVEIEYVTEEPEIYEPNFIFFKRIFEAFKLTDDVKKEKEKEPEKLDKLENSAAPKKKGFEEEHKDSDDDSSDDEQEKKPEAPKLSKKKLRRMNRFTVAELKQLVARPDVVEMHDVTAQDPKLLVHLKATRNSVPVPRHWCFKRKYLQGKRGIEKPPFELPDFIKRTGIQEMREALQEKEEQKTMKSKMREKVRPKMGKIDIDYQKLHDAFFKWQTKPKLTIHGDLYYEGKEFETRLKEKKPGDLSDELRISLGMPVGPNAHKVPPPWLIAMQRYGPPPSYPNLKIPGLNSPIPESCSFGYHAGGWGKPPVDETGKPLYGDVFGTNAAEFQTKTEEEEIDRTPWGELEPSDEESSEEEEEEESDEDKPDETGFITPADSGLITPGGFSSVPAGMETPELIELRKKKIEEAMDGSETPQLFTVLPEKRTATVGGAMMGSTHIYDMSTVMSRKGPAPELQGVEVALAPEELELDPMAMTQKYEEHVREQQAQVEKEDFSDMVAEHAAKQKQKKRKAQPQDSRGGSKKYKEFKF
B4 was tested. Which “Relative to UNC0638 UNC Heavy” value (G9a and GLP) did it give?
The value was 0.17 log base 2.

And the “Relative to UNC0638 UNC Light” value (G9a and GLP)?
Its value is 0.33 log base 2.

And the “Relative to UNC0638 Average” value (G9a and GLP)?
The value was 0.25 log base 2.

What about the “3xMBT/D355N UNC Heavy” value (3×MBT domain of L3MBTL1) of the same molecule?
Its value is 3.89 log base 2.

What about the “3xMBT/D355N UNC Light” value (3×MBT domain of L3MBTL1) of the same molecule?
Its value is 3.33 log base 2.
